molecular target: TLR5^N14, a truncated human TLR5 construct containing only the D1-domain binding sites (human) (UniProt O60602); assay: SPR
Chain of UniProt O60602 (O60602 21-639): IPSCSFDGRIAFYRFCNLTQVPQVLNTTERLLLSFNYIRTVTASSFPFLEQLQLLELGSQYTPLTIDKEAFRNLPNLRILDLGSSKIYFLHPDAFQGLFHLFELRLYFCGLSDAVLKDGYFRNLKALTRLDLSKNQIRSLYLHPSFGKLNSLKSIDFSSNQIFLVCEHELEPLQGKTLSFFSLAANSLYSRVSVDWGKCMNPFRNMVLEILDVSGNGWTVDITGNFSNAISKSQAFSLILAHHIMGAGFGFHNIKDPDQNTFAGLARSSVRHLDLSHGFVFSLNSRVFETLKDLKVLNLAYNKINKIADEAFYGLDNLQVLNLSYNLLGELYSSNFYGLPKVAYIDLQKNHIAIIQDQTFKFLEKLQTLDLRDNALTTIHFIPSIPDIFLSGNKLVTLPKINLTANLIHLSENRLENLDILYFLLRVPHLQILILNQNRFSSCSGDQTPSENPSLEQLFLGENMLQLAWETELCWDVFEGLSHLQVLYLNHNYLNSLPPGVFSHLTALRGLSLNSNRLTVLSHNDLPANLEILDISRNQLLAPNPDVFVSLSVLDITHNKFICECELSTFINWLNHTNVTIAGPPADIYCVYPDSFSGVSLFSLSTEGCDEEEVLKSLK

Substance | kon [M⁻¹ s⁻¹] | Kd [nM] | koff [s⁻¹]
StFliC-PIM, primary interface mutant of StFliC (Q89A, R90A, Q97A) (natural protein) | 18800 | 585 | 0.011
RhFlaB, flagellin FlaB of Roseburia hominis, wild type (recombinant) (from UniProt G2T5W2 1-506) (natural protein) | 45200 | 11.4 | 0.000555
StFliC, flagellin FliC of Salmonella enterica serovar Typhimurium, wild type (from UniProt P06179 1-495) (natural protein) | 11300 | 16.3 | 0.000192

Further lines, with some results ahead:

kon [M⁻¹ s⁻¹] | Substance | Kd [nM] | koff [s⁻¹]
9090 | RhFlaB-PIM, primary interface mutant of RhFlaB (Q88A, R89A, Q96A) (from UniProt G2T5W2 1-506) (natural protein) | 78 | 0.000691
75500 | RhFlaB-ΔD0, RhFlaB truncated to remove the D0 domain (domain or fragment) | – | –

From paper doi:10.1101/2024.12.09.627598
